Consider 3 molecules from publication PMC7212649, “An arrestin-1 surface opposite of its interface with photoactivated rhodopsin engages with enolase-1” (The Journal of Biological Chemistry, 2020).

First the molecules themselves.
B1: enolase-1 (bovine, unlabeled) (enzyme, UniProt Q9XSJ4 1-434, looked up)
chain: MSILKVHAREIFDSRGNPTVEVDLFTAKGLFRAAVPSGASTGIYEALELRDNDKTRYMGKGVSKAVEHINKTIAPALVSKKLNVVEQEKIDKLMIEMDGTENKSKFGANAILGVSLAVCKAGAVEKGVPLYRHIADLAGNAEVILPVPAFNVINGGSHAGNKLAMQEFMILPVGAENFREAMRIGAEVYHNLKNVIKEKYGKDATNVGDEGGFAPNILENKEALELLKNAIGKAGYSDKVVIGMDVAASEFYRSGKYDLDFKSPDDPSRYITPDELANLYKSFIRDYPVVSIEDPFDQDDWEAWQKFTASAGIQVVGDDLTVTNPKRIAKAVSEKSCNCLLLKVNQIGSVTESLQACKLAQSNGWGVMVSHRSGETEDTFIADLVVGLCTGQIKTVAPCRSERLAKYNQILRIEEELGSKAKFAGRSFRNPLAK
notes: enolase-1 (alpha-enolase), bovine; also called Eno1; source: prepared as arrestin-1 (Pichia pastoris, nickel-agarose)
B2: arrestin-1 E218C (C63A/C143A), mBBr-labeled (natural protein, bovine)
chain: KANKPAPNHVIFKKISRDKSVTIYLGKRDYIDHVERVEPVDGVVLVDPELVKGKRVYVSLTAAFRYGQEDIDVMGLSFRRDLYFSQVQVFPPVGASGATTRLQESLIKKLGANTYPFLLTFPDYLPCSVMLQPAPQDVGKSAGVDFEIKAFATHSTDVEEDKIPKKSSVRLLIRKVQHAPRDMGPQPRAEASWQFFMSDKPLRLAVSLSKEIYYHGCPIPVTVAVTNSTEKTVKKIKVLVEQVTNVVLYSSDYYIKTVAAEEAQEKVPPNSSLTKTLTLVPLLANNRERRGIALDGKIKHEDTNLASSTIIKEGIDKTVMGILVSYQIKVKLTVSGLLGELTSSEVATEVPFRLMHPQPEDPDTAKESFQDENFVFEEFARQNLKDAGEYKEEKTDQEAAMDE
modifications: monobromobimane (mBBr) on the introduced cysteine 218
notes: arrestin-1, bovine; also called E218C-mBBr; source: Pichia pastoris, purified (nickel-agarose)

Assay [1] has as its target arrestin-1 D362K (bovine) (UniProt P08168). The assay is described as follows: co-IP; 5 μM arrestin-1 (or mutant) with 5 μM enolase-1–Alexa 546 in LAP200N, 2 h at 4 °C; captured by C10C10 anti-arrestin-1 mAb on Protein G magnetic beads for 16 h, 10 washes, eluted at pH 2.5; fluorescence of captured enolase-1 read.
Assay [2] concerns the target arrestin-1 E361K (bovine) (UniProt P08168). Described as above.
For assay [3], the target named is arrestin-1 R29E (bovine) (UniProt P08168). The description is as above.
The target of assay [4] is T1, arrestin-1 H10C (C63A/C143A), mBBr-labeled (bovine, UniProt P08168 2-404, C63A | C143A | H10C, monobromobimane (mBBr) on the introduced cysteine 10).
T1 construct: arrestin-1, bovine; source: Pichia pastoris, purified (nickel-agarose)
The assay is described as follows: fluorescence quench protection (KI quenching of mBBr); titration of the enolase-1 concentration against H10C-mBBr arrestin-1 to set the conditions. As to conditions: both partners purified.

The target of assay [5] is T2, arrestin-1 K28C (C63A/C143A), mBBr-labeled (bovine, UniProt P08168 2-404, C63A | C143A | K28C, monobromobimane (mBBr) on the introduced cysteine 28).
T2 construct: arrestin-1, bovine; source: Pichia pastoris, purified (nickel-agarose)
Put plainly: fluorescence quench protection (KI quenching of mBBr); both in solution; 0.25 μM mBBr-labeled arrestin-1, 100 mM potassium iodide, with or without 5 μM enolase-1 (20-fold molar excess); emission at 470 nm; Pf = (F(A+E+K)−F(A+K))/(F(A)−F(A+K)). As to conditions: both partners purified.

Assay [6] addresses T3, arrestin-1 R37C (C63A/C143A), mBBr-labeled (bovine, UniProt P08168 2-404, C63A | C143A | R37C, monobromobimane (mBBr) on the introduced cysteine 37).
T3 construct: arrestin-1, bovine; source: Pichia pastoris, purified (nickel-agarose)
The description is as above. As to conditions: both partners purified.

Assay [7] deals with T4, arrestin-1 E50C (C63A/C143A), mBBr-labeled (bovine, UniProt P08168 2-404, C63A | C143A | E50C, monobromobimane (mBBr) on the introduced cysteine 50).
T4 construct: arrestin-1, bovine; source: Pichia pastoris, purified (nickel-agarose)
The description is as above. As to conditions: both partners purified.

Assay [8] addresses T5, arrestin-1 K53C (C63A/C143A), mBBr-labeled (bovine, UniProt P08168 2-404, C63A | C143A | K53C, monobromobimane (mBBr) on the introduced cysteine 53).
T5 construct: arrestin-1, bovine; source: Pichia pastoris, purified (nickel-agarose)
The description is as above. As to conditions: both partners purified.

The target in assay [9] is T6, arrestin-1 D183C (C63A/C143A), mBBr-labeled (bovine, UniProt P08168 2-404, C63A | C143A | D183C, monobromobimane (mBBr) on the introduced cysteine 183).
T6 construct: arrestin-1, bovine; source: Pichia pastoris, purified (nickel-agarose)
The assay is described as above. Particulars: both partners purified.

Assay [10] addresses T7, arrestin-1 R189C (C63A/C143A), mBBr-labeled (bovine, UniProt P08168 2-404, C63A | C143A | R189C, monobromobimane (mBBr) on the introduced cysteine 189).
T7 construct: arrestin-1, bovine; source: Pichia pastoris, purified (nickel-agarose)
The assay is described as above. As to conditions: both partners purified.

In assay [11] the target is T8, arrestin-1 S210C (C63A/C143A), mBBr-labeled (bovine, UniProt P08168 2-404, C63A | C143A | S210C, monobromobimane (mBBr) on the introduced cysteine 210).
T8 construct: arrestin-1, bovine; source: Pichia pastoris, purified (nickel-agarose)
The description is as above. As to conditions: both partners purified.

The target in assay [12] is B2. The description is as above. As to conditions: both partners purified.
The target of assay [13] is T9, arrestin-1 K267C (C63A/C143A), mBBr-labeled (bovine, UniProt P08168 2-404, C63A | C143A | K267C, monobromobimane (mBBr) on the introduced cysteine 267).
T9 construct: arrestin-1, bovine; source: Pichia pastoris, purified (nickel-agarose)
The assay is described as above. As to conditions: both partners purified.

Assay [14] has as its target T10, arrestin-1 V281C (C63A/C143A), mBBr-labeled (bovine, UniProt P08168 2-404, C63A | C143A | V281C, monobromobimane (mBBr) on the introduced cysteine 281).
T10 construct: arrestin-1, bovine; source: Pichia pastoris, purified (nickel-agarose)
The assay is described as above. As to conditions: both partners purified.

In assay [15] the target is T11, arrestin-1 E302C (C63A/C143A), mBBr-labeled (bovine, UniProt P08168 2-404, C63A | C143A | E302C, monobromobimane (mBBr) on the introduced cysteine 302).
T11 construct: arrestin-1, bovine; source: Pichia pastoris, purified (nickel-agarose)
The assay is described as above. Particulars: both partners purified.

Assay [16] deals with T12, arrestin-1 D362C (C63A/C143A), mBBr-labeled (bovine, UniProt P08168 2-404, C63A | C143A | D362C, monobromobimane (mBBr) on the introduced cysteine 362).
T12 construct: arrestin-1, bovine; source: Pichia pastoris, purified (nickel-agarose)
The assay is described as above. Particulars: both partners purified.

Assay [17] concerns the target T1, arrestin-1 H10C (C63A/C143A), …. Described as above. As to conditions: both partners purified.
For assay [18], the target named is B1. The assay is described as follows: fluorescence quench protection (KI quenching of mBBr); E218C-mBBr arrestin-1 with enolase-1 in the presence of 5 μM pRho* (sonicated disc membranes, light for 1 min). Particulars: both partners purified.

On to “enolase-1 labeled with Alexa Fluor 546 (from UniProt Q9XSJ4 1-434) (enzyme)”, for which the reduction of the pulldown against WT arrestin-1 in [1], in [2] and in assay [3] was 25% in each case.

Consider B1, for which the “quench protection at a 20-fold molar excess of enolase-1” value in [4] is 90%. In addition, the “Pf (quench protection factor)” value in [5] was 0.732; in assay [6] it was 0.564; in assay [7], 0.297; in [8], 0.314; in [9], 0.787; in [10], 0.467. In addition, the “Pf (quench protection factor)” value turned out to be 0.618 in assay [11]; 1.08 in assay [12]; 0.484 in assay [13]; 0.269 in [14]; 0.772 in assay [15]; 1.2 in [16]. Moreover, the “Pf (quench protection factor)” value in assay [17] was 0.792.

Regarding B2, the binding result in assay [18] is recorded as “binds”.
